Type in all cases: biochemical
A short description of data set [1]: High throughput cellobiose assay: fold improvement in cellobiase activity of CelA variants over a control enzyme (Tables 2A-2D, 3, 5, 6, 7). The following applies: for activity (e.g., thermoactivity) over the wildtype A. irakense β-glucosidase: assay of Example 7; for activity (e.g., thermoactivity) over the wildtype A. irakense β-glucosidase, demonstrated indirectly: shown by improvement over a chain of controls, of which Variant No. 5 was directly compared to the wildtype; for Fold Improvement over Control Variant: 3.3 g/l cellobiose, 65° C. and pH 5 (incubation overnight), relative to Control #5, Variant No. 366 (SEQ ID NO: 9).

The nature of data set [2]: Enzyme stability: residual activity on pNPG after pre-incubation at high temperature and low pH. The following applies: residual activity on pNPG at pH 7, 30° C.; for % residual activity after 10 mins @ pH 5.5, 55° C.: pre-incubation 10 mins at pH 5.5, 55° C.; for % residual activity after 10 mins @ pH 5.5, 55° C. / % residual activity after 6 hours @ pH 5.5, 55° C.: 1 hr; for % residual activity after 1 hour @ pH 5.5, 55° C.: pre-incubation 1 hour at pH 5.5, 55° C.; for % residual activity after 6 hours @ pH 5.5, 55° C.: pre-incubation 6 hours at pH 5.5, 55° C. The procedure: Residual activity is determined by exposing the enzyme to stress conditions of elevated temperature for a period of time and then determining the β-glucosidase activity. The β-glucosidase activity of the enzyme exposed to stress conditions (“a”) is compared to that of a control in which the enzyme is not exposed to the stress conditions (“b”), and residual activity is equal to the ratio a/b. Exemplary conditions for determining thermostability are provided in Examples 9 and 13. In one embodiment the enzymes are exposed to stress conditions of 50° C. at pH 5.5 or 55° C. at pH 5.0 or 55° C. at pH 5.5, or 65° C. at pH 5.0 for about 1 hour, and assayed at 30° C., pH 7, for about 0.1 hour.
A colorimetric pNPG (p-nitrophenyl-(β-D-glucopyranoside)-based assay was used for measuring β-glucosidase activity. In a total volume of 100 μL, 20 μL clear media supernatant containing β-glucosidase enzyme was added to 4 mM pNPG (Sigma-Aldrich, Inc. St. Louis, Mo.) solution in 50 mM sodium phosphate buffer at pH6.5. The reactions were incubated at pH 6.5, 45° C. for 1 hour. The reaction mixture was quenched with 100 μL of 1M sodium carbonate pH 11 solution. The absorbance of the solution was measured at 405 nm to determine the conversion of pNPG to p-nitrophenol. The release of p-nitrophenol (ε=17,700 M−1 cm−1) was measured at 405 nm to calculate β-glucosidase activity. Detectable β-glucosidase activity was observed under high throughput screening conditions (pH 7, 50° C.).
Four CelA variants and wildtype CelA were characterized to determine their stabilities at high temperature (55° C.) and low pH (pH5.5) using the method of Example 5A. The samples containing various CelA variant enzymes were pre-incubated at pH 5.5, 55° C. for 0-6 hrs. The residual enzyme activity after the thermal challenge was measured using pNPG as substrate at pH 7, 30° C. for 1 hr. […] The mutations listed in the table are indicated relative to SEQ ID NO: 4, the wildtype CelA. These sequences included residues GTS prior to the N-terminus of SEQ ID NO: 4 (prepared as described in Example 1). […]

The nature of data set [3]: Activity profile at different temperatures and pH using cellobiose (10 g/L) as substrate. The procedure:
β-glucosidase activity was also determined using a cellobiose assay, which used cellobiose as substrate. In a total volume of 100 μL, 25 μL clear media supernatant containing CelA enzyme was added to 10 g/L cellobiose (Fluka Cat. No. 22150, Sigma-Aldrich, Inc., St. Louis, Mo.) in 100 mM sodium phosphate buffer (pH 6-7) or sodium acetate buffer (pH 5-5.5). The reaction was incubated at 45-70° C. for an appropriate time (25 minutes to overnight depending on the enzyme concentration) while shaking. Glucose production was determined using an enzymatic glucose assay (K-GLUC, Megazyme, Ireland). 10 μl of each reaction was added to 190 μl GOPOD reagent (supplied as part of the K-GLUC assay kit). The reaction was incubated at 45° C. for 20 minutes and the absorbance of the solution was measured at 510 nm. The GOPOD reagent contains 50 mM Potassium phosphate buffer pH7.4, 0.011M p-hydroxybenzoic acid, 0.008% w/v sodium azide, glucose oxidase (>12,000 U/L), peroxidase (>650 U/L) and 80 mg/L 4-aminoantipyrine. The glucose oxidase enzyme in the reagent reacts with any glucose present in the sample and produces hydrogen peroxide which then reacts with the 4-aminoantipyrine to produce a quinoneimine dye in quantities proportionate with the amount of glucose present and can be measured spectrophotometrically at 510 nm. Detectable β-glucosidase activity was observed under high throughput screening conditions (i.e., pH 7, 50° C.).
The native CelA activity profile was investigated at different temperatures (40-55° C.) and pH (5.0-8.0) using cellobiose (10 g/L) as a substrate. The experimental and analytical procedures are described in Example 5.
The activity profiles for Variant Nos. 264, 366, 391, 463, and 529 were determined at different temperatures and pH using cellobiose (10 g/L) as a substrate. The experimental and analytical procedures are described in Example 5, incubating the variant with cellobiose at temperatures in the range of 45-80. The results are depicted in FIGS. 7-11. […] The temperature and pH profile for this variant is depicted in FIG. 7. […] The temperature and pH profile for this variant is depicted in FIG. 8. […] The temperature and pH profile for this variant is depicted in FIG. 9. […] (with the pH 6 optimum determined by extrapolation). The temperature and pH profile for this variant is depicted in FIG. 10. […] The temperature and pH profile for this variant is depicted in FIG. 11.

Where a chain is given by its changes, count along the chain named.

We go through eleven molecules from patent US8357523B2, “Beta-glucosidase variant enzymes and related polynucleotides” (Codexis, Inc., priority 2009, dated 2013).

B1: Variant No. 5 (protein)
chain: STAIAQEGAAPAAILHPEKWPRPATQRLIDPAVEKRVDALLKQLSVEEKVGQVIQGDIGTITPEDLRKYPLGSILAGGNSGPNGDDRAPPKEWLDLADAFYRVSLEKRPGHTPIPVLFGIDAVHGHGNIGSATIFPHNIALGATRDPELLRRIGEVTAVEMAATGIDWTFAPALSVVRDDRWGRTYEGFSEDPEIVAAYSAAIVEGVQGKFGSKDFMAPGRIVASAKHFLADGGTDQGRDQGDARISEDELIRIHNAGYPPAIDAGVLTVMASFSSWQGIKHHGHKQLLTDVLKGQMGFNGFIVGDWNAHDQVPGCTKFNCPTSLIAGLDMYMAADSWKQLYENTLAQVKDGTIPMARLDDAVRRILRVKVLAGLFEKPAPKDRPGLPGLETLGSPEHRAVGREAVRKSLVLLKNDKGTLPLSPKARVLVAGDGADNIGKQSGGWTISWQGTGNRNDEFPGATSILGGIRDAVADAGGSVEFDVAGQYKTKPDVAIVVFGEEPYAEFQGDVETLEYQPDQKQDLALLKKLKDQGIPVVAVFLSGRPMWVNPELNASDAFVAAWLPGTEGGGVADVLFTDKAGKVQHDFAGKLSYSWPRTAAQTTVNRGDADYNPLFAYGYGLTYKDKSKVGTLPEESGVPAEARQNAGIYFRAGALRLPGRFL
As for B1, the “activity (e.g., thermoactivity) over the wildtype A. irakense β-glucosidase” value in data set [1] is recorded as “improved activity”. Also, in data set [2], the “% residual activity after 10 mins @ pH 5.5, 55° C.” value was determined as 0%; the “% residual activity after 1 hour @ pH 5.5, 55° C.” value amounted to 0%; the “% residual activity after 6 hours @ pH 5.5, 55° C.” value is reported as 0%.

B2: Variant No. 94 (protein)
chain: B1 chain with N79D, A143M, V159E, A198S, F211Y
Regarding B2, in data set [1], the “activity (e.g., thermoactivity) over the wildtype A. irakense β-glucosidase” value was “improved activity”. In addition, in data set [2], the “% residual activity after 10 mins @ pH 5.5, 55° C.” value is reported as 3%; the “% residual activity after 1 hour @ pH 5.5, 55° C.” value came out at 0%; the “% residual activity after 6 hours @ pH 5.5, 55° C.” value is 0%.

B3: Variant No. 366 (protein)
chain: SAAITQEGAAPAAMLHPEKWPRPATQRLIDPAVEKRVDALLKQLSVEEKVGQVIQGDIGTITPEDLRKYPLGSILAGGDSGPNGDDRAPPKEWLDLADAFYRVSLEKRPGHTPIPVLFGIDAVHGHNNIGSATIFPHNIALGMTRDPELLRRIGEVTAEEMAATGIDWTFAPALSVVRDDRWGRTYEGFSEDPEIVASYSAAIVEGFQGKYGSKDFMAPGRAVACAKHFLADGGTDQGRDQGDARISEDELIRIHNAGYPPAIDAGVLTVMASFSSWQGIKHHGHKQLLTDVLKGQMGFNGFIVGDWNAHDQVPGCTKFNCPTSLIAGLDMYMAADSWKQLYENTLAQVKDGTIPMARLDDAVRRILRVKVLAGLFEKPAPKDRPGLPGLETLGSPEHRAVGREAVRKSLVLLKNDKGTLPLSPKARVLVAGDGADNIGKQSGGWTISWQGTGNRNDEFPGATSILGGIRDAVADAGGSVEFDVAGQYKTKPDVAIVVFGEEPYAEFRGDVETLEYQPDQKQDLTLLKKLKDQGIPVVAVFLSGRPMWVNPELNASDAFVAAWLPGTEGGGVADVLFTDKAGKVQHDFAGKLSYSWPRTAAQTTVNRGDADYNPLFAYGYGLTYKDKSKVGTLPEESGVPAEARQN
modifications: catalytic domain; signal sequence F-10T
Regarding B3, in data set [1], the “activity (e.g., thermoactivity) over the wildtype A. irakense β-glucosidase, demonstrated indirectly” value is “improved activity”. In data set [3], the “pH of optimum activity” value turned out to be 6 pH and the “temperature of optimum activity” value came out at 66 °C.

B4: Variant No. 391 (protein)
chain: B3 chain with A3R, S73A, V177P, I203Y
modifications: catalytic domain
As to B4, the “activity (e.g., thermoactivity) over the wildtype A. irakense β-glucosidase, demonstrated indirectly” value in data set [1] is listed as “improved activity”. In data set [3], the “pH of optimum activity” value is recorded as 5.5 pH and the “temperature of optimum activity” value was 69 °C.

B5: Variant No. 463 (protein)
chain: B3 chain with A3R, S73A, T169N, V177P, A202P, I203Y, A272L, Q287R, D311G, E512G
modifications: catalytic domain
As for B5, in data set [1], the “activity (e.g., thermoactivity) over the wildtype A. irakense β-glucosidase, demonstrated indirectly” value is given as “improved activity”. Besides, the “temperature of optimum activity” value in data set [3] is 69 °C. Also, the “pH of optimum activity (determined by extrapolation)” value in data set [3] (pH optimum determined by extrapolation) is given as 6 pH.

B6: 422 (protein)
chain: SAAITQEGAAPAPMLHPEKWPRPATQRLIDPAVEKRVDALLKQLSVEEKVGQVIQGDIGTITPEDLRKYPLGSILAGGDSGPNGDDRAPPKEWLDLADAFYRVSLEKRPGHTPIPVLFGIDAVHGHNNIGSATIFPHNIALGMTRDTELLRRIGEVTAEEMAATGIDWTFAPALSVPRDDRWGRTYEGFSEDPEIVASYSAAIVEGFQGKYGSKDFMAPGRAVACAKHFLADGGTDQGRDQGDARISEDELIRIHNAGYPPAIDAGVLTVMASFSSWQGIKHHGHKQLLTDVLKGQMGFNGFIVGDWNAHDQVPGCTKFNCPTSLIAGLDMYMAADSWKQLYENTLAQVKDGTIPMARLDDAVRRILRVKVLAGLFEKPAPKDRPGLPGLETLGSPEHRTVGREAVRKSLVLLKNDKGTLPLSPKARVLVAGDGADNIGKQSGGWTISWQGTGNRNDEFPGATSILGGIRDAVADAGGSVEFDVAGQYKTKPDVAIVVFGENPYAEFQGDVETLEYQPDQKQDLTLLKKLKDQGIPVVAVFLSGRPMWVNPELNASDAFVAAWLPGTEGGGVADVLFTDKAGKVQHDFAGKLSYSWPRTAAQTTVNRGDADYNPLFAYGYGLTYKDKSKVGTLPEESGVPAEARQNAGIYFRAGALRLPGRFL
modifications: truncated; signal peptide F-10T
For B6, in data set [1], the “Fold Improvement over Control Variant” value is on record as “+++ (+++ = 2.1 to 3.0 fold improvement over control Variant No. 366)”.

B7: 427 (protein)
chain: B6 chain with P13A, N128H, T147P, T400A, Q508R, H586Y
modifications: truncated; signal peptide F-10T
Regarding B7, in data set [1], the “Fold Improvement over Control Variant” value was “++ (++ = 1.1 to 2.0 fold improvement over control Variant No. 366)”.

B8: 424 (protein)
chain: B6 chain with T147P, V204I, D291G, T400A, N502E, Q508R
modifications: truncated; signal peptide F-10T
As to B8, the “Fold Improvement over Control Variant” value in data set [1] was “++ (++ = 1.1 to 2.0 fold improvement over control Variant No. 366)”.

B9: 425 (protein)
chain: B6 chain with A3R, P13A, Q508R
modifications: truncated; signal peptide F-10T
B9: in data set [1], the “Fold Improvement over Control Variant” value was “+++ (+++ = 2.1 to 3.0 fold improvement over control Variant No. 366)”.

B10: 423 (protein)
chain: B6 chain with P13A, P109D, T147P, N502E, Q508R
modifications: truncated; signal peptide F-10T
As to B10, in data set [1], the “Fold Improvement over Control Variant” value is given as “++ (++ = 1.1 to 2.0 fold improvement over control Variant No. 366)”.

B11: 426 (protein)
chain: B6 chain with P13A, T147P, N502E, Q508R
modifications: truncated; signal peptide F-10T
In the case of B11, in data set [1], the “Fold Improvement over Control Variant” value is “++ (++ = 1.1 to 2.0 fold improvement over control Variant No. 366)”.
